Source: paper PMC9545174 (2022)

Target: wildtype SARS-CoV-2 RBD Protein (SARS-CoV-2, UniProt P0DTC2 319-541)
Experiment: SPR

| Binder | koff [s⁻¹] |
| --- | --- |
| 18-4A (antibody, V domains shown) VH: QVQLQQSGPGLVKPSQTLSLTCAISGDSVSNNSAAWNWIRQSPSRGLEWLGRTYYRSKWYNDYAVSVSSRITINPDTSKNQFSLQLNSVTPEDTAVYYCAREGALLWFGEGAFDYWGQGTLVTVSS VL: EIVLTQSPGTLSLSPGERATLSCRASHIVSSSYLAWYQQKPGQAPRFLIYGASSRATGIPDRFSGSGSGTDFTLTISRLEPEDFAVYYCQQYAGSPFTFGPGTKVDIK | 0.000134 |
| 11-2G (antibody, V domains shown) VH: QVQLQQAGPGLVKPSQTLSLTCAISGDSVSNNSAIWNWIRQSPSRGLEWLGRTYYRSKWYNDYAVSVSSRITINPDTSKNQFSLQLNSVTPEDTAVYYCARVDILTGYSFDYWGQGTLVTVSS VL: EIVLTQSPGTLSLSPGERATLSCRASQSVSSSFLAWYQQKPGQAPRFLIYGESYRATGIPDRFSGSGSGTDFTLTISRLEPEDFAVYYCQQYGSSLTFGGGTKVEIK | 0.000568 |
